Measurements: publication PMC9482650, “Quantitative fragmentomics allow affinity mapping of interactomes” (Nature Communications, 2022)

T1: APBA1_2, Q02410
T1 sequence (Q02410 742-832, limits assumed, looked up): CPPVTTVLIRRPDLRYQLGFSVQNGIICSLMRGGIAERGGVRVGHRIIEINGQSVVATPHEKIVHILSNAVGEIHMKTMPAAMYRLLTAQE

T2: APBA2_2, Q99767
T2 sequence (Q99767 654-744, limits assumed, looked up): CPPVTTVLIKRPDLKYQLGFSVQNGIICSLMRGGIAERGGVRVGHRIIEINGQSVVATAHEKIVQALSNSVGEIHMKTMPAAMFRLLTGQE

T3: ARHGAP21, Q5T5U3
T3 sequence (Q5T5U3 45-169, limits assumed, looked up): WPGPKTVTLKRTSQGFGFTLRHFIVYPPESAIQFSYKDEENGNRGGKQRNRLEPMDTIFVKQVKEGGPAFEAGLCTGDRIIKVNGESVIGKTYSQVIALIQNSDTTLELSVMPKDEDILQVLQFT

T4: GRIP1_4, Q9Y3R0
T4 sequence (Q9Y3R0 467-571, limits assumed, looked up): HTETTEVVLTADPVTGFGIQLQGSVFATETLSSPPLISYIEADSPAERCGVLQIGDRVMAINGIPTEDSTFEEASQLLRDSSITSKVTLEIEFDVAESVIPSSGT

T5: MPP2, Q14168
T5 sequence (Q14168 180-250, limits assumed, looked up): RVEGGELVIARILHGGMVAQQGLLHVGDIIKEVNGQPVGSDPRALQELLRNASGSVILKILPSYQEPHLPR

T6: MPP6, Q9NZW5
T6 sequence (Q9NZW5 125-219, limits assumed, looked up): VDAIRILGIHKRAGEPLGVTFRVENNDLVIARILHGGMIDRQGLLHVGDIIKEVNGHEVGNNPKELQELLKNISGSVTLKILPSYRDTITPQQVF

T7: NHERF3_3, Q5T2W1
T7 sequence (Q5T2W1 238-333, limits assumed, looked up): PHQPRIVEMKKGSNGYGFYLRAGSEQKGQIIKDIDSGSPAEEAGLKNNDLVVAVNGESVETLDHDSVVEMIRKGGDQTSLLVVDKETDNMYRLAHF

T8: PCLO, Q9Y6V0
T8 sequence (Q9Y6V0 4491-4600, limits assumed, looked up): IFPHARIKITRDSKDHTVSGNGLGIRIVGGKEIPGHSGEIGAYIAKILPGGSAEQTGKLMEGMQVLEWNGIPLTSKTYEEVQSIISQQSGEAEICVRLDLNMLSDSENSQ

T9: SNTA1, Q13424
T9 sequence (Q13424 82-180, limits assumed, looked up): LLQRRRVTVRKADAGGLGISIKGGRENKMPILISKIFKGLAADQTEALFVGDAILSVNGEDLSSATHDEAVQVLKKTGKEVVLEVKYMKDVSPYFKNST


Assays:
Experiment in all cases: holdup assay
Design in all cases: key: below the threshold = too weak to quantify, mostly under pKd 3.1 to 4
Details in all cases: plain residues with an end cap or a label only (N-terminal biotin on a linker: ado-ado)
[1] = molecular target: T1, APBA1_2, Q02410
[2] = molecular target: T2, APBA2_2, Q99767
[3] = molecular target: T3, ARHGAP21, Q5T5U3
[4] = molecular target: ARHGEF12, Q9NZN5-2
Sequence of ARHGEF12, Q9NZN5-2 (Q9NZN5 other isoform, or with tags, fused parts or gaps): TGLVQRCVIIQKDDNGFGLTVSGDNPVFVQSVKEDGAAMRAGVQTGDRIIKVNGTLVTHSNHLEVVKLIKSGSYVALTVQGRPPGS

[5] = molecular target: CASK, O14936
Sequence of CASK, O14936 (O14936 487-570): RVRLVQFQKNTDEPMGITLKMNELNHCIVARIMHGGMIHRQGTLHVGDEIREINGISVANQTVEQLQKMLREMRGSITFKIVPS

[6] = molecular target: DLG1_1, Q12959
[7] = molecular target: DLG2_2, Q15700
Sequence of DLG2_2, Q15700 (Q15700 189-283): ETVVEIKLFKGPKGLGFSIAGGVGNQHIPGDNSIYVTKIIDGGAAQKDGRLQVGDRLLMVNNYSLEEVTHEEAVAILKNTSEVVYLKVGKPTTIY

[8] = molecular target: DLG4_1, P78352
Sequence of DLG4_1, P78352 (P78352 62-152): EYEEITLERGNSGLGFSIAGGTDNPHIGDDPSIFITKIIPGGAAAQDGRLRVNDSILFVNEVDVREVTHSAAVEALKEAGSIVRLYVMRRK

[9] = molecular target: FRMPD2_1, Q68DX3
Sequence of FRMPD2_1, Q68DX3 (Q68DX3 770-861): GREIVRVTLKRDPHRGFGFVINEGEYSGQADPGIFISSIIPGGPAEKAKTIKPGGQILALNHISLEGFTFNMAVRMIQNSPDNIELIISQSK

[10] = molecular target: FRMPD4, Q14CM0
Sequence of FRMPD4, Q14CM0 (Q14CM0 67-160): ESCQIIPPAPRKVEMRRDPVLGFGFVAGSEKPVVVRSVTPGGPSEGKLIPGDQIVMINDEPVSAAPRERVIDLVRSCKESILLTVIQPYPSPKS

[11] = molecular target: GORASP2, Q9H8Y8
[12] = molecular target: GRID2IP_1, A4D2P6
Sequence of GRID2IP_1, A4D2P6 (A4D2P6 1-87): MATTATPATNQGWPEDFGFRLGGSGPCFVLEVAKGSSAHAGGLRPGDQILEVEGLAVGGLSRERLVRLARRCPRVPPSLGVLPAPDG

[13] = molecular target: T4, GRIP1_4, Q9Y3R0
[14] = molecular target: GRIP2_3, Q9C0E4
Sequence of GRIP2_3, Q9C0E4 (Q9C0E4 238-339): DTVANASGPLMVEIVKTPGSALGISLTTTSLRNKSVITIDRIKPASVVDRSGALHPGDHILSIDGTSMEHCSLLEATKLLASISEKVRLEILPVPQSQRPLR

[15] = molecular target: IL16_4, Q14005
Sequence of IL16_4, Q14005 (Q14005 1229-1329): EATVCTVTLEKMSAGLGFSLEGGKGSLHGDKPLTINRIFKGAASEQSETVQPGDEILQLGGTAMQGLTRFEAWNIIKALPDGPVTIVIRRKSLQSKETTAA

[16] = molecular target: Inadl_2, Q8NI35
Sequence of Inadl_2, Q8NI35 (Q8NI35 238-335): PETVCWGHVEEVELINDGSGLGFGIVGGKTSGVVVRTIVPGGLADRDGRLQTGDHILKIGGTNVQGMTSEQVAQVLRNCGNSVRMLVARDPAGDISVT

[17] = molecular target: LIMK2, P53671
Sequence of LIMK2, P53671 (P53671 143-248): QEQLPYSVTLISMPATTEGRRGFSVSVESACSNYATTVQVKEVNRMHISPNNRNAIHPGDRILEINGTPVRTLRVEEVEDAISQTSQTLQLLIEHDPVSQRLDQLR

[18] = molecular target: MAGI2_4, Q86UL8
Sequence of MAGI2_4, Q86UL8 (Q86UL8 772-865): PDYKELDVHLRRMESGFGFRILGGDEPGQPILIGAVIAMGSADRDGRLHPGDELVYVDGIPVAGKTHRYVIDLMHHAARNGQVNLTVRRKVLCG

[19] = molecular target: MAGI2_6, Q86UL8
Sequence of MAGI2_6, Q86UL8 (Q86UL8 1141-1229): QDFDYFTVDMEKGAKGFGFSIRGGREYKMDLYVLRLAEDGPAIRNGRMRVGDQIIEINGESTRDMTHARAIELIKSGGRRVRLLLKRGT

[20] = molecular target: MAGI3_2, Q5TCQ9
Sequence of MAGI3_2, Q5TCQ9 (Q5TCQ9 398-503): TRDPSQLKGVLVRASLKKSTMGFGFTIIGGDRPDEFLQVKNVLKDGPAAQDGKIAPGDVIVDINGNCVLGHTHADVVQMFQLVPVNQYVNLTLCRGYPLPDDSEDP

[21] = molecular target: T5, MPP2, Q14168
[22] = molecular target: T6, MPP6, Q9NZW5
[23] = molecular target: NHERF2_2, Q15599
Sequence of NHERF2_2, Q15599 (Q15599 142-238): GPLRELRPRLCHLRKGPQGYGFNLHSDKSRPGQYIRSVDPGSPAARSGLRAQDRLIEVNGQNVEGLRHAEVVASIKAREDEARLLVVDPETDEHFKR

[24] = molecular target: T7, NHERF3_3, Q5T2W1
[25] = molecular target: T8, PCLO, Q9Y6V0
[26] = molecular target: PDLIM1, O00151
Sequence of PDLIM1, O00151 (O00151 1-87): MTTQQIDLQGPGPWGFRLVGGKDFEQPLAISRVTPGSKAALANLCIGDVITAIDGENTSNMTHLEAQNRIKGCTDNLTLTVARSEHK

[27] = molecular target: T9, SNTA1, Q13424
[28] = molecular target: TJP2_1, Q9UDY2
Sequence of TJP2_1, Q9UDY2 (Q9UDY2 24-128): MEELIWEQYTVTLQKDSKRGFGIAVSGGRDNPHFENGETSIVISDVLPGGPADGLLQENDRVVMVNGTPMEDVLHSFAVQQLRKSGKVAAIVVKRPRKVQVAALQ

Binder | pKd [1] | pKd [2] | pKd [3] | pKd [4] | pKd [5] | pKd [6] | pKd [7] | pKd [8] | pKd [9] | pKd [10] | pKd [11] | pKd [12] | pKd [13] | pKd [14] | pKd [15] | pKd [16] | pKd [17] | pKd [18] | pKd [19] | pKd [20] | further results
EGGKKRESEA [APPL1, Q9UKG1] | below the threshold | below the threshold | below the threshold | below the threshold | below the threshold | below the threshold | below the threshold | below the threshold | below the threshold | below the threshold | below the threshold | below the threshold | below the threshold | below the threshold | below the threshold | below the threshold | below the threshold | below the threshold | below the threshold | below the threshold | pKd [21]: below the threshold; pKd [22]: below the threshold; pKd [23]: below the threshold; pKd [24]: below the threshold; pKd [25]: below the threshold; pKd [26]: below the threshold; pKd [27]: below the threshold; pKd [28]: below the threshold
QLAEIAESGL [ITK, Q08881] | below the threshold | 3.48 | 3.87 | below the threshold | below the threshold | below the threshold | 3.57 | below the threshold | below the threshold | 3.71 | below the threshold | below the threshold | below the threshold | 3.53 | 3.8 | below the threshold | below the threshold | below the threshold | 3.68 | below the threshold | pKd [21]: below the threshold; pKd [22]: below the threshold; pKd [23]: 4.27; pKd [24]: below the threshold; pKd [25]: below the threshold; pKd [26]: 3.56; pKd [27]: 3.63; pKd [28]: below the threshold
PKLMGVETVV [DUSP10, Q9Y6W6] | 4.08 | below the threshold | 3.73 | 3.74 | below the threshold | 5.06 | 5.36 | 5.16 | below the threshold | below the threshold | 5.03 | below the threshold | below the threshold | below the threshold | below the threshold | below the threshold | below the threshold | 4.14 | 3.99 | 5.32 | pKd [21]: below the threshold; pKd [22]: 3.82; pKd [23]: below the threshold; pKd [24]: below the threshold; pKd [25]: below the threshold; pKd [26]: below the threshold; pKd [27]: 5.13; pKd [28]: below the threshold
VGIERETDVL [EZH1, Q92800] | below the threshold | below the threshold | 3.92 | below the threshold | below the threshold | 3.6 | below the threshold | below the threshold | below the threshold | 3.87 | below the threshold | below the threshold | below the threshold | below the threshold | 3.48 | below the threshold | below the threshold | below the threshold | below the threshold | 4 | pKd [21]: below the threshold; pKd [22]: below the threshold; pKd [23]: 3.6; pKd [24]: below the threshold; pKd [25]: below the threshold; pKd [26]: below the threshold; pKd [27]: 4.63; pKd [28]: below the threshold
